Assay results reported in article PMC4422553.

Molecular target: His6-tagged Rev-A IN (reticuloendotheliosis virus strain A integrase) (reticuloendotheliosis virus strain A (Rev-A))
Sequence (P03360 752-1152 limits assumed): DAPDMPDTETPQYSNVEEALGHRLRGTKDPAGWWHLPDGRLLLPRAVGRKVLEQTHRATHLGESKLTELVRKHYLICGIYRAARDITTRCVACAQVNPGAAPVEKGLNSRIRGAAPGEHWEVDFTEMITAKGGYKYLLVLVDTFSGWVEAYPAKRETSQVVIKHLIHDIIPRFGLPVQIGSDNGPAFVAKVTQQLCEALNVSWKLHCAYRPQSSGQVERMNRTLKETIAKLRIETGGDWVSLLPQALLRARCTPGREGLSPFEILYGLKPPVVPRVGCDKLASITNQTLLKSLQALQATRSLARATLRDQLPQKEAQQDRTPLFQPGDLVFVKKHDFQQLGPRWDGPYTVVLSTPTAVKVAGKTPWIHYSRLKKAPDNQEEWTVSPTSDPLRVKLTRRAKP

With “BRD4(462-720), C-terminal fragment of human BRD4 that contains the ET domain (from UniProt O60885-2 462-720) (domain or fragment)” the concerted integration (DNA strand transfer) activity of Rev-A IN in vitro with 0.05, 0.15, 0.35, 0.5 μM BRD4 (462–720), against the activity without BRD4 protein was 5 fold.
